Reference: FireProtDB (doi:10.1074/jbc.m704364200)

B1: Prolactin, P01236 (parent)
chain: MNIKGSPWKGSLLLLLVSNLLLCQSVAPLPICPGGAARCQVTLRDLFDRAVVLSHYIHNLSSEMFSEFDKRYTHGRGFITKAINSCHTSSLATPEDKEQAQQMNQKDFLSLIVSILRSWNEPLYHLVTEVRGMQEAPEAILSKAVEIEEQTKRLLEGMELIVSQVHPETKENEIYPVWSGLPSLQMADEESRLSAYYNLLHCLRRDSHKIDNYLKLLKCRIIHNNNC

Variants of: B1
Conditions: Homo sapiens; pH 7.4; Thermal; CD; NaH2PO4 100mM; structure 1RW5; whole UniProt chain shown

Variant | Tm [°C] | change of melting temperature, mutant - wild type (higher = more stable) [°C] | unfolding enthalpy (calorimetric) [kcal/mol]
MNIKGSPWKGSLLLLLVSNLLLCQSVAPLPICPGGAARCQVTLRDLFDRAVVLSHYIHNLSSEMFSEFDKRYTHGRGFITKAINSCHTSSLATPEDKEQAQQMNQKDFLSLIVSILRSWNEPLYHLVTEVRGMQEAPEAILSKAVEIEEQTKRLLELMELIVSQVHPETKENEIYPVWSGLPSLQMADEESRLSAYYNLLHCLRRDSHKIDNYLKLLKCRIIHNNNC [G157L] | 96.8 | 15.7 | 
MNIKGSPWKGSLLLLLVSNLLLCQSVAPLPICPGGAARCQVTLRDLFDRAVVLSHYIHNLSSEMFSEFDKRYTHGRGFITKAINSCHTSSLATPEDKEQAQQMNQKDFLSLIVSILRSWNEPLYHLVTEVRGMQEAPEAILSKAVEIEEQTKRLLERMELIVSQVHPETKENEIYPVWSGLPSLQMADEESRLSAYYNLLHCLRRDSHKIDNYLKLLKCRIIHNNNC [G157R] | 79 | -2.2 | 55.9
MNIKGSPWKGSLLLLLVSNLLLCQSVAPLPICPGGAARCQVTLRDLFDRAVVLSHYIHNLSSEMFSEFDKRYTHGRGFITKAINSCHTSSLATPEDKEQAQQMNQKDFLSLIVSILRSWNEPLYHLVTEVRGMQEAPEAILSKAVEIEEQTKRLLENMELIVSQVHPETKENEIYPVWSGLPSLQMADEESRLSAYYNLLHCLRRDSHKIDNYLKLLKCRIIHNNNC [G157N] | 89.8 | 8.7 | 
MNIKGSPWKGSLLLLLVSNLLLCQSVAPLPICPGGAARCQVTLRDLFDRAVVLSHYIHNLSSEMFSEFDKRYTHGRGFITKAINSCHTSSLATPEDKEQAQQMNQKDFLSLIVSILRSWNEPLYHLVTEVRGMQEAPEAILSKAVEIEEQTKRLLEFMELIVSQVHPETKENEIYPVWSGLPSLQMADEESRLSAYYNLLHCLRRDSHKIDNYLKLLKCRIIHNNNC [G157F] | 93.8 | 12.7 | 
MNIKGSPWKGSLLLLLVSNLLLCQSVAPLPICPGGAARCQVTLRDLFDRAVVLSHYIHNLSSEMFSEFDKRYTHGRGFITKAINSCHTSSLATPEDKEQAQQMNQKDFLSLIVSILRSWNEPLYHLVTEVRGMQEAPEAILSKAVEIEEQTKRLLEYMELIVSQVHPETKENEIYPVWSGLPSLQMADEESRLSAYYNLLHCLRRDSHKIDNYLKLLKCRIIHNNNC [G157Y] | 96.8 | 15.7 | 
MNIKGSPWKGSLLLLLVSNLLLCQSVAPLPICPGGAARCQVTLRDLFDRAVVLSHYIHNLSSEMFSEFDKRYTHGRGFITKAINSCHTSSLATPEDKEQAQQMNQKDFLSLIVSILRSWNEPLYHLVTEVRGMQEAPEAILSKAVEIEEQTKRLLEDMELIVSQVHPETKENEIYPVWSGLPSLQMADEESRLSAYYNLLHCLRRDSHKIDNYLKLLKCRIIHNNNC [G157D] | 84.2 | 3.1 | 58
MNIKGSPWKGSLLLLLVSNLLLCQSVAPLPICPGGAARCQVTLRDLFDRAVVLSHYIHNLSSEMFSEFDKRYTHGRGFITKAINSCHTSSLATPEDKEQAQQMNQKDFLSLIVSILRSWNEPLYHLVTEVRGMQEAPEAILSKAVEIEEQTKRLLEPMELIVSQVHPETKENEIYPVWSGLPSLQMADEESRLSAYYNLLHCLRRDSHKIDNYLKLLKCRIIHNNNC [G157P] | 70.8 | -10.3 | 50.1
MNIKGSPWKGSLLLLLVSNLLLCQSVAPLPICPGGAARCQVTLRDLFDRAVVLSHYIHNLSSEMFSEFDKRYTHGRGFITKAINSCHTSSLATPEDKEQAQQMNQKDFLSLIVSILRSWNEPLYHLVTEVRGMQEAPEAILSKAVEIEEQTKRLLEVMELIVSQVHPETKENEIYPVWSGLPSLQMADEESRLSAYYNLLHCLRRDSHKIDNYLKLLKCRIIHNNNC [G157V] | 101 | 19.7 | 
